In publication PMC3510514 (Nucleic Acids Research, 2012):

Target: T1, GST-ubiquitin (human, UniProt P0CG48 1-76)
T1 construct: ubiquitin, the cut product of the polyubiquitin precursor; also called GST-tagged ubiquitin; source: purified
Assay: pull-down; GST-ubiquitin (3 μg) on glutathione-sepharose beads, FLAG-Spartan (1 μg) in solution; 4 h at 4°C, buffer I (40 mM Tris HCl pH 7.5, 85 mM NaCl, 0.1 mM DTT, 10% glycerol, 0.01% NP40); immunoblot with anti-FLAG and anti-GST
Conditions: both partners purified

B1: FLAG-Spartan PIP mutant YF331,332AA (natural protein, human, UniProt Q9H040 1-489, looked up)
chain: MDDDLMLALRLQEEWNLQEAERDHAQESLSLVDASWELVDPTPDLQALFVQFNDQFFWGQLEAVEVKWSVRMTLCAGICSYEGKGGMCSIRLSEPLLKLRPRKDLVETLLHEMIHAYLFVTNNDKDREGHGPEFCKHMHRINSLTGANITVYHTFHDEVDEYRRHWWRCNGPCQHRPPYYGYVKRATNREPSAHDYWWAEHQKTCGGTYIKIKEPENYSKKGKGKAKLGKEPVLAAENKDKPNRGEAQLVIPFSGKGYVLGETSNLPSPGKLITSHAINKTQDLLNQNHSANAVRPNSKIKVKFEQNGSSKNSHLVSPAVSNSHQNVLSNAAPRVSFANQKAFRGVNGSPRISVTVGNIPKNSVSSSSQRRVSSSKISLRNSSKVTESASVMPSQDVSGSEDTFPNKRPRLEDKTVFDNFFIKKEQIKSSGNDPKYSTTTAQNSSSSSSQSKMVNCPVCQNEVLESQINEHLDWCLEGDSIKVKSEESL
notes: Spartan/C1orf124, human; cDNA clone bought from ImaGenes; also called PIP mutant Spartan; YF331,332AA Spartan; source: S. cerevisiae BJ5464, purified (glutathione-Sepharose, eluted by PreScission protease); not shown: GST, N-terminal, cleaved; FLAG, N-terminal, kept
- binding result: binds
